Test results published in the RNAGym collection of RNA variant scans (doi:10.1073/pnas.2313332121).
Fewer inactive variants are shown than the library holds.

B1: TPR 5TU (parent)
chain: GGAUCUUCUCGAUCUAACAAAAAAGACAAAUCUGCCACAAAGCUUGAGAGCAUCUUCGGAUGCAGAGGCGGCAGCCUUCGGUGGCGCGAUAGCGCCAACGUUCUCAACUAUGACACGCAAAACGCGUGCUCCGUUGAAUGGAGUUUAUCAUG

Variants of: B1
Assay: polymerase ribozyme fitness, log enrichment relative to wild type (log ratio); higher = more active; in vitro selection for triplet polymerase activity
Procedure, shortened: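 Fitness compares each genotype's enrichment to that of the wild type on a logarithmic scale, averaging replicates with inverse-variance weights. The logarithm is base 2. Enrichment came from Illumina sequencing of input and output libraries after one triplicate round of in vitro selection, which included frozen incubation at −7 °C, of PCR-built, transcribed mutant libraries of each subunit of a heterodimeric triplet polymerase ribozyme. Only genotypes with ≥10 input reads and ≥1 read per output were kept.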

Variant	polymerase ribozyme fitness (log ratio)
GGAUCUUCUCGAUCUAACAAAAAAGACAAAUCUGCCACAAAGCUAGAGAGCAUCUUCGGAUGCAGAGGCGGCAGCCUUCGGAGGCGCGAUAGCGCCAACGUUCUCGACUAUGACACGCAAAGCGCGUGCUCCGUUGAAUGGAGUUUAGCAUG [U45A U82A A106G A122G U148G]	≤ -4.2
GGAUCUUCUCGAUCUAACAAAAAAGACAAAUCUGCCACAAAGCUAGAGAGCAUCUUCGGAUGCAGAGGCGGCAGCCUUCGGUGGCGCGAUACCGCCAACGUUCUCAACUAUGACACGCAAAACGCGUGCUCCGUUGAAUGGAGAUUAUCAUG [U45A G92C U144A]	-3.41
GGAUCUUCUCGAUCUAACAAAAAAGACAAAUCUGCCACAAAGCUCGAGCGCAUCUUCGGAUGCAGAGGCCGCAGCCUUCGGUCGCGCGAUAGCGCCAACGUUCUCAACUAUGACACGCAAAACGCGUGCUCCGUUGCAUGGAGCUUAUCAUG [U45C A49C G70C G83C A137C U144C]	≤ -4.2
GGAUCUUCUCGAUCUAACAAAAAAGACAAAUCUGCCACAAAGCUAGAGAGCAUCUUCACGUGCAGAGGCGGCAGCCUUCGGUGGCGCGAUAGCGCCAACGUUCUCAACUAUGACACGCAAAACGCGUGCUCCAUUGAAUGGAGUUUAUCAUG [U45A G58A G59C A60G G133A]	≤ -4.2
GGAUCUUCUCGAUCUAACAAAAAAGACAAAUCUGCCACAAAGCUAGAGAGCAUCUUCGGAUGCAGAGGCGGCAGCCUUCGGUGGCACGAUAGCGCCAACGUUCUCAACUAUGACACGCAAAACGCGUGCUCCGUUGAAUGGGGUUUAUCAUG [U45A G86A A142G]	≤ -4.2
GGAUCUUCUCGAUCUAACAAAAAAGACAAAUCUGCCACAAAGCUAGAGAGCAUCUUCGGAUGCAGACGCGGCAGCCUUCGGUGUCGCGAUAGCGCCAACGUUCUCAAUUAUGACACGCAUAACGCGUGCUCCGUUGAAUGGAGUUUAUCAUG [U45A G67C G84U C108U A120U]	≤ -4.2
GGAUCUUCUCGAUCUAACAAAAAAGACAAAUCUGCCACAAAGCUAGAGAGCAUCUUCGUAUGCAGAGGCGGCAUCCUUCGGUGGCGCGAUAGCGCCAACGUUCUCAACUAUGACACGCAAGACGCGUGCUCCGUUGAAUGAAGUUUAUCAUG [U45A G59U G74U A121G G141A]	≤ -4.2
GGAUCUUCUCGAUCUAACAAAAAAGACAAAUCUGCCACAAAGCUAGAGAGCAUCUUCGGAUGCAGAGGCGGCAGCCUUCGGGGGCGCGAUAGCGCCAACGUUCUCAACUAUGACACGCAAAACGCGUGAUCCGUUGAAAGGAGUGUAUCAUG [U45A U82G C129A U139A U145G]	≤ -4.2
GGAUCUUCUCGAUCUAACAAAAAAGACAAAUCUGCCACAAAGCUAGAGAGCAUCUUCGGAUGCAGAGGCGGCAGCCUUCGGUGGCGCGAUAGCGCCAACGUCCUUAACUAUGACACGCCAAACGCGUGCUCCGUUGAAUGGAAUUUAUCAUG [U45A U102C C105U A119C G143A]	≤ -4.2
GGAUCUUCUCGAUCUAACAAAAAAGACAAAUCUGCCACAAAGCUAGAGAGCAUCUUCCGAUGCAGAGGCGGCAGCCUUCGGUGGCGCGAUAGCGCCAACGUUCUCAACUAUGACACGCAAAACGCGUGCUCCGUUGAAUGGAGUUUAUCAUG [U45A G58C]	-2.28
GGAUCUUCUCGAUCUAACAAAAAAGACAAAUCUGCCACAAAGCUAGAGAGCAUCUUCAGAUGCAGAGGCGGCAGCCUUCGGUGGCGCGAUAGCGCCAACGUUCUCAACUAUGACACGCAAAACGCGUGCUCCGUUGAAUGGAGUUUAUCAUG [U45A G58A]	-1.48
GGAUCUUCUCGAUCUAACAAAAAAGACAAAUCUGCCACAAAGCUAGAGAGCAUCAUCGGAUGCAGAGGCGGCAGCCUUCGGUGGCGCGAUAGUGCCAACGUUCUCAACUAUGACACGCAAAACGCGUGCUCCGUUGAAUGGAGUUUAUCAUG [U45A U55A C93U]	-3.88
GGAUCUUCUCGAUCUAACAAAAAAGACAAAUCUGCCACAAAGCUAAAGAGCAUCCUCGGAUGCAGGGGCGGCAGCCGUCGGAGGCGCGAUAGCGCCAACGUUGUCAACUAUGACACGCAAAACGCGUGCUCCGUCGAAUGGAGUCUAUCAUG [U45A G46A U55C A66G U77G U82A C103G U135C U145C]	≤ -4.2
GGAUCUUCUCGAUCUAACAAAAAAGACAAAUCUGCCACAAAGCUAGAGAGCAUCUUCGGAUGCAGAGGCGGCAGCCUUCGGUGGCGCGAUAACGCCAACGUUCUCAACUAUGACACGCAAAACGCGCACGCCGUUGAAUGGAGUUUAUCAUG [U45A G92A U127C G128A U130G]	-4.06
GGAUCUUCUCGAUCUAACAAAAAAGACAAAUCUGCCACAAAGCUAGAGAGCAUCUUCGGAUGCACAGGCGGCGGCCUUCGGUGACGCGAUAGCGCCAACGUUCUCAACUAUGACACGCAAAACGCGUGCUCCGUUGAAUGGGGUUUAUCAUG [U45A G65C A73G G84A A142G]	≤ -4.2
GGAUCUUCUCGAUCUAACAAAAAAGACAAAUCUGCCACAAAGCUCGAGAGCAUCUUCGGAUGCAGAGGCGGCAGCCUUCGGUGGCGCGAUAGCGCCAACGUUCUCAACUAUGACACGCCAAACGCGUGCUCCGUUGAAUGGAGUUUAUCAUG [U45C A119C]	-0.959
GGAUCUUCUCGAUCUAACAAAAAAGACAAAUCUGCCACAAAGCUAGAGAGCAUCUUCGGAUGCAGAGGCGGCAGCCUUCGGUGUCGCGAUAGCGCCAACGUUCUCAAGUAUGACACGCAAAACGCGUGCUCCGUUGAAUGGAGUUUAUCAUG [U45A G84U C108G]	≤ -4.2
GGAUCUUCUCGAUCUAACAAAAAAGACAAAUCUGCCACAAAGCUAGAGAGCAUCAUCGGAAGAAGAGGCGGCAGCCAUCGGUGGCGCGAUAGCGCCAACGUUCUCAACUAUGACACGCAAAACGCGUGCUACGUUGAAUGGAGUUUAUCGAG [U45A U55A U61A C63A U77A C131A A150G U151A]	≤ -4.2
GGAUCUUCUCGAUCUAACAAAAAAGACAAAUCUGCCACAAAGCUAGAGAGCAUCUUCGGAUGCAGAGGCGGCAGCCUUCGGUGGCGCGAUAGCGCCAACGUUCUCAACUAUGACACGCAAAACGCGUGCUCCGUUGAAUGGAGUUUAGGAUG [U45A U148G C149G]	≤ -4.2
